The results in this text go back to paper PMC7054990.

This assay has as its target ALIX BRO1 domain (human). Put plainly: recruitment to supported lipid bilayers (time-lapse confocal fluorescence microscopy); supported bilayers DOPC:DOPE:PI:LBPA (4.99:2:1:2 mol) preincubated 40 min with 3.7 µM ALIX BRO1 domain or mutant, unbound protein removed, then 0.64 µM CHMP4B-488 for 25 min; ALIX buffer: 25 mM Hepes pH 7.4, 0.3 mM BAPTA, 0.3 mM NTA, 0.3 mM hydroxyethyl EDTA, 686 µM CaCl2 (20 µM free calcium).

ALIX BRO1 domain (human), sequence (Q9WU78 1-359): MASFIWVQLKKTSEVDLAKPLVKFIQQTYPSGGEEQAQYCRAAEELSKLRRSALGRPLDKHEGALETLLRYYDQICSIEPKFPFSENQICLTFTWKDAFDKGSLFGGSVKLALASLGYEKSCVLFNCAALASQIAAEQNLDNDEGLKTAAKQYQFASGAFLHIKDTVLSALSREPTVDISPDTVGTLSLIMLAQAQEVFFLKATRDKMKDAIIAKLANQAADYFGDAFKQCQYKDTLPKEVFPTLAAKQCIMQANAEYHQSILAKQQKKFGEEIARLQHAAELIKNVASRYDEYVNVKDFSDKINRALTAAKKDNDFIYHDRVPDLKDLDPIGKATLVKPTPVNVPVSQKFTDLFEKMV

B1: Alexa Fluor 488 CHMP4B (natural protein)
chain: MSVFGKLFGAGGGKAGKGGPTPQEAIQRLRDTEEMLSKKQEFLEKKIEQELTAAKKHGTKNKRAALQALKRKKRYEKQLAQIDGTLSTIEFQREALENANTNTEVLKNMGYAAKAMKAAHDNMDIDKVDELMQDIADQQELAEEISTAISKPVGFGEEFDEDELMAELEELEQEELDKNLLEISGPETVPLPNVPSIALPSKPAKKKEEEDDDMKELENWAGSM
modifications: Alexa Fluor 488 (labelled with Alexa Fluor 488 tetrafluorophenyl ester, 1:2 protein:dye)
With B1, the apparent t1/2 of recruitment worked out at 5 min.
